Test results reported in US12365732 (23ANDME, dated 2025).
Values belong to the binder of their own block, whether it stands above or below them.

Legend:
hu-CD96 Fc = target: T1, hu-CD96 Fc (human, biotinylated in Table 16); assay: SPR (Biacore), Fab
T1 construct: also called biotinylated hu-CD96-Fc

[1] = target: T2, hu-CD96 (soluble, isoform 2 extracellular domain) (human, UniProt P40200 22-516, biotinylated in Octet and blocking ELISA); assay: CD155 blocking ELISA
T2 construct: the assays name only hu-CD96; also called hCD96; biotinylated hu-CD96
T2 sequence: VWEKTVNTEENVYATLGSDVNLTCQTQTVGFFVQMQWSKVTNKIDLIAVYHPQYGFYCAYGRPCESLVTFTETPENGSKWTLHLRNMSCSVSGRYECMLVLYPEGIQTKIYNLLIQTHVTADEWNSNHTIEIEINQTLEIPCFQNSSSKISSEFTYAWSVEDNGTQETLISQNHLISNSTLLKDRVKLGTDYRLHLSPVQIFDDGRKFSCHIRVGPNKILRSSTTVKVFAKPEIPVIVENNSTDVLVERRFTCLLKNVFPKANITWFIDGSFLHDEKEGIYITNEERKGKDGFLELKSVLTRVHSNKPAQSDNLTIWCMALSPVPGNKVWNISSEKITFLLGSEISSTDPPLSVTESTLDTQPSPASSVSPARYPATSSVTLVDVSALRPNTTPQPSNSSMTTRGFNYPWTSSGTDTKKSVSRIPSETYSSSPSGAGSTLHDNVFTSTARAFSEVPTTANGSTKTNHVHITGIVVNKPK

[2] = target: T2, hu-CD96 (soluble, isoform 2 …); assay: BLI (Octet), biotin-CD96 on SA, Fab analyte
[3] = target: T3, hu-CD96 isoform 2 on CHO cells (human, UniProt P40200 22-585); assay: FACS, Ab 2 nM
T3 construct: also called CHO-CD96 (isoform 2); CD96-CHOs
T3 sequence: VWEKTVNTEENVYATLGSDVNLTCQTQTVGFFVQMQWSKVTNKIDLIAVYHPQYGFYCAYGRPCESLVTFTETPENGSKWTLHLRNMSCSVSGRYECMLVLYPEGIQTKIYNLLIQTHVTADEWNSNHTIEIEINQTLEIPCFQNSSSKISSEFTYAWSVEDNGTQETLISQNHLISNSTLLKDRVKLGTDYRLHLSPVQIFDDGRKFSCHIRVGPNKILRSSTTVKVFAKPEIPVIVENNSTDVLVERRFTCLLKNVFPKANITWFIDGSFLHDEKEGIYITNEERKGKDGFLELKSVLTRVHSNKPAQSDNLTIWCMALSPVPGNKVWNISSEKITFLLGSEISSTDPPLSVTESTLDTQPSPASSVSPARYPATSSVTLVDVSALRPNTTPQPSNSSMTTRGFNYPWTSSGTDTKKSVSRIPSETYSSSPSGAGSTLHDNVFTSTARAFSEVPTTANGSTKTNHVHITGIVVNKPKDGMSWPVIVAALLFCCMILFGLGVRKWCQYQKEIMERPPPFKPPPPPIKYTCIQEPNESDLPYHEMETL
Protocol: (§1) Isoform 1 of hu-CD96 (Origene, catalog #RC213845) was transiently expressed in HEK293T cells following standard lipofectamine or Fugene transfection protocol. […] Cells were washed, and binding was detected by incubation with anti-mouse IgG-FITC (Biolegend, catalog #406001) for 20 minutes at 4° C. Cell binding was analyzed by flow cytometry with a CytoFLEX (Beckman Coulter). Binding curves were calculated as a percentage of cells positive for bound antibody.
(§2) Isoform 2 of hu-CD96 (DNA construct: Origene, catalog #RC221005) was expressed on a single-cell-clone-derived CHO stable cell line. Binding of the anti-CD96 antibodies to the CHO cells were determined as described above with isoform 1 of hu-CD96.

[4] = target: T3, hu-CD96 isoform 2 on CHO cells; assay: FACS, Ab 10 nM
Protocol: as §1, §2

[5] = target: T3, hu-CD96 isoform 2 on CHO cells; assay: FACS, Ab 50 nM
Protocol: as §1, §2

[6] = target: T3, hu-CD96 isoform 2 on CHO cells; assay: FACS, Ab 0.4 nM
Protocol: as §1, §2

[7] = target: T3, hu-CD96 isoform 2 on CHO cells; assay: FACS, Ab 0.08 nM
Protocol: as §1, §2

[8] = target: T3, hu-CD96 isoform 2 on CHO cells; assay: FACS, Ab 0.016 nM
Protocol: as §1, §2

[9] = target: T3, hu-CD96 isoform 2 on CHO cells; assay: FACS, Ab 0.0032 nM
Protocol: as §1, §2

[10] = target: T3, hu-CD96 isoform 2 on CHO cells; assay: FACS, % positive curve
Protocol: as §1, §2

hu-CD96D1 D3-hFc = hu-CD96D1 D3-hFc (human); assay: ELISA, coated CD96D1D3-hFc
Protocol: (§3) CD96 binding of purified hybridoma antibodies: The hu-CD96 and cy-CD96 antigen binding ELISA was performed on the purified hybridoma antibodies. Briefly, 96-well MAXISORP® flat bottom plates (Thermo Fisher Scientific, Waltham, MA; Cat #439454) were coated overnight at 4° C. with 0.5 µg/mL of hu-CD96D1 D3-hFc and cynomolgus monkey CD96D1 D3-hFc in PBS. After removing the coating solution, unspecific binding was blocked by PBS containing 1% bovine serum albumin (blocking buffer) and incubation at room temperature for one hour. Plates were then washed three times with PBS and 0.05% TWEEN®-20 (wash buffer). Serial dilution of purified antibodies in PBS containing 0.5% BSA and 0.05% Tween 20 (ELISA buffer) was added to individual wells followed by incubation at room temperature for one hour with agitation. Plates were washed three times with wash buffer, then 100 µL/well of anti-mouse IgG-HRP (Thermo Fisher Scientific, Waltham, MA; Cat #626520) in ELISA buffer was added. […] Enzymatic color development was stopped with 50 µL/well of TMB stop solution (VWR/Avantor, Radnor, PA, USA; Cat #95059-200). Plates were analyzed with a SpectraMax i3X plate reader (Molecular Devices LLC, San Jose, CA, USA) at 450 nm.

[11] = target: T4, cynomolgus monkey CD96D1 D3-hFc (cynomolgus monkey); assay: ELISA, coated CD96D1D3-hFc
T4 construct: also called cy-CD96D1 D3
T4 sequence (chain, as listed by the source limits assumed): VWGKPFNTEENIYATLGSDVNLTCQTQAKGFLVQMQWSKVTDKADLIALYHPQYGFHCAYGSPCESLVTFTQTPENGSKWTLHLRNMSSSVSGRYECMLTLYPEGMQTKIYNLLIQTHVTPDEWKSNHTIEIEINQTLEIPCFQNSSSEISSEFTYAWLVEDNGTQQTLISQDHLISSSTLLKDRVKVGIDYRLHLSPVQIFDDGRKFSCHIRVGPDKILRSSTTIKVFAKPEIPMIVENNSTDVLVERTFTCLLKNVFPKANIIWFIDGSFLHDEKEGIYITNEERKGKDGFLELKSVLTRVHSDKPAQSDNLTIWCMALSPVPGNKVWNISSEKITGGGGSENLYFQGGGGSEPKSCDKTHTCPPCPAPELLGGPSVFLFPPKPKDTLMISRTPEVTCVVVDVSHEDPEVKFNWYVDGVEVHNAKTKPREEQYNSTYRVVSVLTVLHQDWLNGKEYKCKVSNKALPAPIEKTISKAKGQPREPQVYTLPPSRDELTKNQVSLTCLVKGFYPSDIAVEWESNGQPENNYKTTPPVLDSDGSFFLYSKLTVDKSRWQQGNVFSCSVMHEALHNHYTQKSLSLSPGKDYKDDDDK
Protocol: as §3

[12] = target: T5, recombinant hu-CD96 (M1-M503-polyHis) (human, UniProt P40200 22-519); assay: ELISA, blocks hu-CD96-his binding to coated CD155-hFc
T5 construct: also called hu-CD96-his
T5 sequence: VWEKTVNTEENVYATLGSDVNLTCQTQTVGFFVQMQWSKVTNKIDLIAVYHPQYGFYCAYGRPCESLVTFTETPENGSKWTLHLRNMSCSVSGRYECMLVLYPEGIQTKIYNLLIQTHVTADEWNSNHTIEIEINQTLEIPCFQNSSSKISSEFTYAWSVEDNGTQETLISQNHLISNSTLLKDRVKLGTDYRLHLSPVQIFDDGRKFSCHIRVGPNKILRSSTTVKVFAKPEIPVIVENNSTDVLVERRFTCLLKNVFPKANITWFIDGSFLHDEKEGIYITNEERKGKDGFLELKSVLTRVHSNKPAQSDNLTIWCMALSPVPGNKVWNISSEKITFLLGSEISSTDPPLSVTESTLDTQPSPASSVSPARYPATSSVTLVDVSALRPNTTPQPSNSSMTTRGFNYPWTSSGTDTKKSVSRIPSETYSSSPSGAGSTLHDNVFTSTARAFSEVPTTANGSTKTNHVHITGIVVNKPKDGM
Protocol: as §3
CD155 receptor blocking of purified hybridoma antibodies: Human CD155 blocking ELISA was performed on purified hybridoma antibodies following the same protocol as described for CD96 (above), except that serial dilution of purified antibodies 50 µL/well (starting at 1 µM, 1:5 dilution) in assay buffer was added into the reaction.

Kd (hu-CD96 Fc): 1.8 nM | koff (hu-CD96 Fc): 2.53e-05 s⁻¹ | kon (hu-CD96 Fc): 16700 M⁻¹ s⁻¹ | IC50 [1]: 0.2 nM | Kd [2]: 0.1 nM
B1: mAb1.v7.NGS8 Fab (Fab, V domains shown)
VH: EVQLVQSGAEVKKPGASVKVSCKASGFTFTNNFMHWVRQAPGQGLEWIGMIHANSGITNINEKFKNRVTMTTDTSTSTAYMELRSLRSEDTAVYYCRSDGIYEGYFDYWGQGTLVTVSS
VL: DIQLTQSPSSLSASVGDRVTITCKASQNVGTAIVWYQQKPGKAPKVLIYSASTRYTGVPSRFSGSGSGTDFTLTISSLQPEDFATYYCQQYSSSPLTFGQGTKVEIK
notes: Fab with 8xHis tag; also called W33F/P52aA/T97I

% positive [3]: 26.2% | % positive [4]: 35.3% | % positive [5]: 34.8% | % positive [6]: 7.1% | % positive [7]: 0.2% | % positive [8]: 0% | % positive [9]: 0.1% | EC50 [10]: 1.04 nM | EC50 (hu-CD96D1 D3-hFc): 0.072 nM | binding result [11]: no binding | IC50 [12]: 0.883 nM
B2: 1G8, purified hybridoma antibody (antibody, V domains shown)
VH: QVQLQQSGPELLKPGASVKISCKASGYTFTDYYINWVKQRPGQGLEWIGWIFPGTEGIYYNEKFKGKATLTVDKSSTTAYMLLSSLTSEDSAVYFCAREGDYRYYSPLGYWGQGTLVTVSA
VL: DIQMNQSPSSLSASLGDTITITCRVSQDISFWLSWYQQKPGNIPKLLIYKASNLHTGVPPRFSGSGSGTDFTLTISSLQPEDIAAYYCLQSQSYPYTFGGGTKLEIK
notes: murine hybridoma IgG

EC50 (hu-CD96D1 D3-hFc): 0.05 nM | binding result [11]: no binding | IC50 [12]: 1.06 nM
B3: 16D9, purified hybridoma antibody (antibody, V domains shown)
VH: QVQLQQSGPELVKPGASVKISCKASGYNFNDYYINWVNQRPGQGLEWIGWIFPGRIITYYNEKFKGKATLTVDTSSNTAYMLLSSLTSEDSAVYFCARGVGEGFDYWGQGTTLTVSS
VL: ENVLTQSPAIMSATLGEKVTMNCRASSNVKYMYWYQQKSGVSPKLWIYYTSNLASGVPTRFSGSGSGTSYSLTISSVEAEDAATYYCQQFTSSPLTFGAGTKLELK
notes: murine hybridoma IgG
